Experimental data reported in patent US7166472B2, “Method for the identification of agents that inhibit or promote cataracts and uses thereof” (The General Hospital Corporation, priority 2000, dated 2007).

Legend:
[1] = Metal reduction capacity of tanned calf lens α-crystallin, Cu(II); assay type: biochemical; details: α-crystallin preparation 100 μg/ml, Cu(II)-glycine 25 μM, one hour 37° C.
Description: (§1) Studies of Tanned Calf Lens Crystalin in Assay of Crystallin Protein for Metal Reduction Capacity—α-Crystallin (10 mg/ml) from calf lens was modified by reaction with 3-HK (100 μM), 3-HAA (100 μM), or ASC (100 μM) in PBS, ph 7.4, for 12 hours at 4° C. in the dark. Control samples were incubated with ascorbic acid (100 μM) or without added reductant. The tanning incubation solutions also contained triethylenetetramine (TETA, 200 μM) to prevent cross-linking of the protein. After incubation, free reductant was removed from the tanned α-crystallin preparations by exhaustive dialysis at 4EC in the dark utilizing PBS, pH 7.4, containing CHELEX™ 100 chelating ion exchange resin (BioRad, Hercules, Calif.). The various modified α-crystallin preparations (100 μg/ml) were co-incubated with either Cu(II)-glycine glycine (25 μM) or Fe(III)-citrate (25 μM) for one hour at 37° C. and assayed for metal reduction capacity using the BC and BP spectrophotometric assay as detailed above. Incubated and dialyzed α-crystallin (100 μg/ml) and untreated α-crystallin (100 μg/ml) preparations were used for procedural control.
(§2) 3-HK: α-crystallin reduced nearly 100% of the available Cu(II) and approximately 20% of the available Fe(III). 3-HAA: α-crystallin reduced approximately 65% of the available Cu(II).

[2] = Metal reduction capacity of tanned calf lens α-crystallin, Fe(III); assay type: biochemical; details: α-crystallin preparation 100 μg/ml, Fe(III)-citrate 25 μM, one hour 37° C.
Description: as §1, §2

| Molecule | reduction of available Cu(II) [1] | reduction of available Fe(III) [2] |
| --- | --- | --- |
| α-Crystallin: unmodified α-crystallin from calf lens, procedural control (protein, UniProt P02470 1-173; P02510 1-175, looked up) Alpha-crystallin A chain: MDIAIQHPWFKRTLGPFYPSRLFDQFFGEGLFEYDLLPFLSSTISPYYRQSLFRTVLDSGISEVRSDRDKFVIFLDVKHFSPEDLTVKVQEDFVEIHGKHNERQDDHGYISREFHRRYRLPSNVDQSALSCSLSADGMLTFSGPKIPSGVDAGHSERAIPVSREEKPSSAPSS Alpha-crystallin B chain: MDIAIHHPWIRRPFFPFHSPSRLFDQFFGEHLLESDLFPASTSLSPFYLRPPSFLRAPSWIDTGLSEMRLEKDRFSVNLDVKHFSPEELKVKVLGDVIEVHGKHEERQDEHGFISREFHRKYRIPADVDPLAITSSLSSDGVLTVNGPRKQASGPERTIPITREEKPAVTAAPKK | approximately 35% | negligible percentage |
| 3-HK: α-crystallin: calf lens α-crystallin modified (tanned) by reaction with 3-HK, free metabolite removed by dialysis (protein, UniProt P02470 1-173; P02510 1-175, looked up, modified with 3-hydroxykynurenine, calf lens α-crystallin modified (tanned) by reaction with 3-HK, free metabolite removed by dialysis) Alpha-crystallin A chain: MDIAIQHPWFKRTLGPFYPSRLFDQFFGEGLFEYDLLPFLSSTISPYYRQSLFRTVLDSGISEVRSDRDKFVIFLDVKHFSPEDLTVKVQEDFVEIHGKHNERQDDHGYISREFHRRYRLPSNVDQSALSCSLSADGMLTFSGPKIPSGVDAGHSERAIPVSREEKPSSAPSS Alpha-crystallin B chain: MDIAIHHPWIRRPFFPFHSPSRLFDQFFGEHLLESDLFPASTSLSPFYLRPPSFLRAPSWIDTGLSEMRLEKDRFSVNLDVKHFSPEELKVKVLGDVIEVHGKHEERQDEHGFISREFHRKYRIPADVDPLAITSSLSSDGVLTVNGPRKQASGPERTIPITREEKPAVTAAPKK | ~100% | approximately 20% |
